Test results from the FLAb antibody collection.

Assay: patients with anti-drug antibodies; higher = more immunogenic

| Protein | patients with anti-drug antibodies [%] |
| --- | --- |
| unnamed (protein) chain 1: QVQLVESGGGVVQPGRSLRLSCAASGFTFSTYGMHWVRQAPGKGLEWVAVIWDDGSYKYYGDSVKGRFTISRDNSKNTLYLQMNSLRAEDTAVYYCARDGITMVRGVMKDYFDYWGQGTLVTVSS chain 2: AIQLTQSPSSLSASVGDRVTITCRASQDISSALVWYQQKPGKAPKLLIYDASSLESGVPSRFSGSESGTDFTLTISSLQPEDFATYYCQQFNSYPLTFGGGTKVEIK | 0 |
| unnamed (protein) chain 1: QVQLQQSGAELVRPGSSVKISCKASGYAFSSYWMNWVKQRPGQGLEWIGQIWPGDGDTNYNGKFKGKATLTADESSSTAYMQLSSLASEDSAVYFCARRETTTVGRYYYAMDYWGQGTTVTVSS chain 2: DIQLTQSPASLAVSLGQRATISCKASQSVDYDGDSYLNWYQQIPGQPPKLLIYDASNLVSGIPPRFSGSGSGTDFTLNIHPVEKVDAATYHCQQSTEDPWTFGGGTKLEIK | 1.4 |
| unnamed (protein) chain 1: QVQLQQPGAELVRPGASVKLSCKASGYTFTSYWINWVKQRPGQGLEWIGNIYPSDSYTNYNQKFKDKATLTVDKSSSTAYMQLSSPTSEDSAVYYCTRSWRGNSFDYWGQGTTLTVSS chain 2: DIVMTQSPSSLTVTAGEKVTMSCKSSQSLLNSGNQKNYLTWYQQKPGQPPKLLIYWASTRESGVPDRFTGSGSGTDFTLTISSVQAEDLAVYYCQNDYSYPFTFGSGTKLEIK | 0 |
| unnamed (protein) chain 1: QLQLQESGPGLLKPSETLSLTCTVSGGSISSPGYYGGWIRQPPGKGLEWIGSIYKSGSTYHNPSLKSRVTISVDTSKNQFSLKLSSVTAADTAVYYCTRPVVRYFGWFDPWGQGTLVTVSS chain 2: AIQLTQSPSSLSASVGDRVTITCRASQGISSALAWYQQKPGKAPKLLIYDASNLESGVPSRFSGSGSGTDFTLTISSLQPEDFATYYCQQFNSYPTFGQGTKVEIK | 2.2 |
| unnamed (protein) chain 1: EVQLQQSGAELVKPGASVKLSCTASGFNIKDTYVHWVKQRPEQGLEWIGRIDPANGYTKYDPKFQGKATITADTSSNTAYLQLSSLTSEDTAVYYCVRPLYDYYAMDYWGQGTSVTVSS chain 2: DILMTQSPSSMSVSLGDTVSITCHASQGISSNIGWLQQKPGKSFMGLIYYGTNLVDGVPSRFSGSGSGADYSLTISSLDSEDFADYYCVQYAQLPYTFGGGTKLEIK | 35.5 |
| unnamed (protein) chain 1: EVQLQQSGPELVKPGASVKMSCKASGYTFTSYVVHWVKQNPGQGLEWIGYINPFNDGTKYNENFKGKATLTSDRSSSTAYMELSSLTSEESAVYFCARDMGREGFAYWGQGTLVTVSA chain 2: DIVMTQAAFSNPVTLGTSASISCRSSKSLLHSNGITYLYWYLQKPGQSPQLLIYQMSNLASGVPDRFSSSGSGTDFTLRISRVEAEDVGVYYCAQNLELPRTFGGGTKLEI | 100 |
| unnamed (protein) chain 1: EVQLVQSGAEVKKPGASVKVSCKASGYTFTSYVIHWVRQRPGQGLAWMGYINPYNDGTKYNERFKGKVTITSDRSTSTVYMELSSLRSEDTAVYLCGREGIRYYGLLGDYWGQGTLVTVSS chain 2: DIQMTQSPSSLSASVGDRVTITCGTSEDIINYLNWYQQKPGKAPKLLIYHTSRLQSGVPSRFSGSGSGTDFTLTISSLQPEDFATYYCQQGYTLPYTFGQGTKVEIK | 13 |
| unnamed (protein) chain 1: EVQLVESGGGLVQPGGSLRLSCAASGFTFNTYAMYWIRQAPGKGLEWVARIRSKSNNYAIYYADSVKDRFTISRDDSKNSLYLQMNSLKTEDTAVYYCARPYSDSFAYWGQGTLVTVSS chain 2: DVVMTQSPLSLPVTPGEPASISCRSSQSLVHSTGNTYLHWYLQKPGQSPQLLIYKVSNRFSGVPDRFSGSGSGTDFTLKISRVEAEDVGVYYCSQSTHVPFTFGGGTKVEIK | 0 |
| unnamed (protein) chain 1: EVQLVESGGGLVQPGGSLRLSCAASGFTFSDYNMAWVRQAPGKGLEWVATITYEGRNTYYRDSVKGRFTISRDNAKNSLYLQMNSLRAEDTAVYYCASPPQYYEGSIYRLWFAHWGQGTLVTVSS chain 2: AIQLTQSPSSLSASVGDRVTITCRADESVRTLMHWYQQKPGKAPKLLIYLVSNSEIGVPDRFSGSGSGTDFRLTISSLQPEDFATYYCQQTWSDPWTFGQGTKVEIK | 12.8 |
| unnamed (protein) chain 1: QVQLVQSGAEVKKPGASVKVSCKASGYTFTSYYMHWVRQAPGQGLEWMGEISPFGGRTNYNEKFKSRVTMTRDTSTSTVYMELSSLRSEDTAVYYCARERPLYASDLWGQGTTVTVSS chain 2: DIQMTQSPSSLSASVGDRVTITCRASQGISSALAWYQQKPGKAPKLLIYSASYRYTGVPSRFSGSGSGTDFTFTISSLQPEDIATYYCQQRYSLWRTFGQGTKLEIK | 25.5 |
| unnamed (protein) chain 1: ELQLQESGPGLVKPSETLSLTCTVSGGSISSGSYYWDWIRQPPGKGLEWIGNIYKSGSTYYNPSLKSRVTISVDTSKNQFSLKLSSVTAADTAVYYCARERGMHYMDVWGKGTTVTVSS chain 2: DIQMTQSPSSLSASVGDRVTITCRASQSINSYLNWYQQKPGKAPKLLIYAASSLQSGVPSRFSGSGSGTDFTLTISSLQPEDFATYYCQQQFDPPFTFGGGTKVEIK | 0 |
| unnamed (protein) chain 1: QVQLQQSGAEVKKPGSSVKVSCKASGYTFTSYNMHWVKQAPGQGLEWIGAIYPGMGDTSYNQKFKGKATLTADESTNTAYMELSSLRSEDTAFYYCARSTYYGGDWYFDVWGQGTTVTVSS chain 2: DIQLTQSPSSLSASVGDRVTMTCRASSSVSYIHWFQQKPGKAPKPWIYATSNLASGVPVRFSGSGSGTDYTFTISSLQPEDIATYYCQQWTSNPPTFGGGTKLEIK | 19.5 |
| unnamed (protein) chain 1: EVQLVESGGGLVQPGGSLRLSCAASGYTFTNYGMNWVRQAPGKGLEWVGWINTYTGEPTYAADFKRRFTFSLDTSKSTAYLQMNSLRAEDTAVYYCAKYPHYYGSSHWYFDVWGQGTLVTVSS chain 2: DIQMTQSPSSLSASVGDRVTITCSASQDISNYLNWYQQKPGKAPKVLIYFTSSLHSGVPSRFSGSGSGTDFTLTISSLQPEDFATYYCQQYSTVPWTFGQGTKVEIK | 0.3 |
| unnamed (protein) chain 1: QVQLVESGGGVVQPGRSLRLSCAASGFTFSSYDMHWVRQAPGKGLEWVAVIWYDGSNKYYADSVKGRFTISRDNSKNTLYLQMNSLRAEDTAVYYCARGSGNWGFFDYWGQGTLVTVSS chain 2: DIQMTQSPSSLSASVGDRVTITCRASQGISRWLAWYQQKPEKAPKSLIYAASSLQSGVPSRFSGSGSGTDFTLTISSLQPEDFATYYCQQYNTYPRTFGQGTKVEIK | 0 |
| unnamed (protein) chain 1: QVQLVQSGAEVKKPGASVKVSCKGSGYTFTSYWMHWVRQAPGQRLEWIGEIDPSESNTNYNQKFKGRVTLTVDISASTAYMELSSLRSEDTAVYYCARGGYDGWDYAIDYWGQGTLVTVSS chain 2: DVVMTQSPLSLPVTPGEPASISCRSSQSLAKSYGNTYLSWYLQKPGQSPQLLIYGISNRFSGVPDRFSGSGSGTDFTLKISRVEAEDVGVYYCLQGTHQPYTFGQGTKVEIK | 9.5 |
| unnamed (protein) chain 1: EVQLVQSGAEVKKPGESLRISCKGSGYSFSTYWISWVRQMPGKGLEWMGKIYPGDSYTNYSPSFQGQVTISADKSISTAYLQWSSLKASDTAMYYCARGYGIFDYWGQGTLVTVSS chain 2: SYELTQPPSVSVSPGQTASITCSGDNIGDQYAHWYQQKPGQSPVLVIYQDKNRPSGIPERFSGSNSGNTATLTISGTQAMDEADYYCATYTGFGSLAVFGGGTKLTVL | 40.7 |
| unnamed (protein) chain 1: QVQLQESGPGLVKPSETLSLTCTVSGFSLTNYGIHWIRQPPGKGLEWLGVIWARGFTNYNSALMSRLTISKDNSKNQVSLKLSSVTAADTAVYYCARANDGVYYAMDYWGQGTLVTVSS chain 2: DFVMTQSPAFLSVTPGEKVTITCSAQSSVNYIHWYQQKPDQAPKKLIYDTSKLASGVPSRFSGSGSGTDYTFTISSLEAEDAATYYCQQWTTNPLTFGQGTKVEIK | 2.6 |
| unnamed (protein) chain 1: QVQLVESGGGVVQPGRSLRLSCAASGFTFSSYGMHWVRQAPGKGLEWVAVIWYDGSNEYYADSVKGRFTISRDNSKNTLYLQMNSLRAEDTAVYYCARDRGYTSSWYPDAFDIWGQGTMVTVSS chain 2: QSVLTQPPSVSGAPGQRVTISCTGSSSNTGAGYDVHWYQQVPGTAPKLLIYGSGNRPSGVPDRFSGSKSGTSASLAITGLQAEDEADYYCQSYDSSLSGWVFGGGTRLTVL | 2.5 |
| unnamed (protein) chain 1: QVELVESGGGLVQPGGSLRLSCAASGFTFTSYWMSWVRQAPGKGLELVSSITSYGSFTYYADSVKGRFTISRDNSKNTLYLQMNSLRAEDTAVYYCARNMYTHFDSWGQGTLVTVSS chain 2: DIVLTQPPSVSGAPGQRVTISCSGSSSNIGSNSVSWYQQLPGTAPKLLIYDNSKRPSGVPDRFSGSKSGTSASLAITGLQSEDEADYYCQSRDTYGYYWVFGGGTKLTVL | 2.3 |
